The values below are quoted from earlier work in PMC12990809.

Assay in all cases: pulldown
Common to all, as to conditions: 20 nM protein, 1.5 uM RNA pool; 20 mM HEPES pH 7.8, 70 mM KCl, 10 mM NaCl, 10% glycerol, 2 mM DTT, 0.1 ug/uL BSA; 30 min, 4 C (protocol of this paper; not …); cited from earlier work

The target in series [1] is T1, TVAG_129710 (Trichomonas vaginalis) (UniProt A2DI67).
T1 sequence: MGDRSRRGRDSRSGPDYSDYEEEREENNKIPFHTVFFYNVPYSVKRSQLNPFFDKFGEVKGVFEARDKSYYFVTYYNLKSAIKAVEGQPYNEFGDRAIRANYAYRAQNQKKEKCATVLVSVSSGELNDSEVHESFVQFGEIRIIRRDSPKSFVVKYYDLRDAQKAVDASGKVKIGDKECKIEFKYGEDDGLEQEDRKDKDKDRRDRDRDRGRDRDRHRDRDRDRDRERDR

Series [2] deals with T2, NEMVEDRAFT_v1g104011 (Nematostella vectensis) (UniProt A7S488).
T2 sequence: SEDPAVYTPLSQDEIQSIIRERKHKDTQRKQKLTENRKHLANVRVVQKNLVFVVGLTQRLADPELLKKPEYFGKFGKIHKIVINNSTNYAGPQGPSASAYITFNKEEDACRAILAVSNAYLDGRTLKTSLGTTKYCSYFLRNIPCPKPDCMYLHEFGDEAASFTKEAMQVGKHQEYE

Series [3] has as its target T3, tiar-1 (Caenorhabditis elegans) (UniProt Q95QV8).
T3 sequence: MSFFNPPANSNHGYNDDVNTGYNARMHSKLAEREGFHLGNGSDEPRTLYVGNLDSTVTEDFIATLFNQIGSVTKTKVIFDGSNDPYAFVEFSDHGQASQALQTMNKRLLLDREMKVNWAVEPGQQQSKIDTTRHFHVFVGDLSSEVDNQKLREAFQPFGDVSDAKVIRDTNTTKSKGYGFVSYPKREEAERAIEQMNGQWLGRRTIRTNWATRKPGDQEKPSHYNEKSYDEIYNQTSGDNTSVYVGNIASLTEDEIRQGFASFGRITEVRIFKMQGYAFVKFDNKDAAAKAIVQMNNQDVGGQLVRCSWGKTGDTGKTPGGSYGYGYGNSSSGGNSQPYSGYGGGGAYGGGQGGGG

Series [4] deals with T4, TVAG_267990 (Trichomonas vaginalis) (UniProt A2DLE8).
T4 sequence: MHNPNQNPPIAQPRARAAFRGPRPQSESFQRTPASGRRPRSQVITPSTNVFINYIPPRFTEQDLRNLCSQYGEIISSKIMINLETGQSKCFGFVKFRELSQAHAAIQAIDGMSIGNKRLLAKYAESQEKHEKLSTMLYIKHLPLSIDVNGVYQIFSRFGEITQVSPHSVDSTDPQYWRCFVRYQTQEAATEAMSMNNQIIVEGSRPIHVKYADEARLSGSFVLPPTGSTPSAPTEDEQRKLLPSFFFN

The target in series [5] is T5, Tb09.211.0930 (Trypanosoma brucei) (UniProt Q38E63).
T5 sequence: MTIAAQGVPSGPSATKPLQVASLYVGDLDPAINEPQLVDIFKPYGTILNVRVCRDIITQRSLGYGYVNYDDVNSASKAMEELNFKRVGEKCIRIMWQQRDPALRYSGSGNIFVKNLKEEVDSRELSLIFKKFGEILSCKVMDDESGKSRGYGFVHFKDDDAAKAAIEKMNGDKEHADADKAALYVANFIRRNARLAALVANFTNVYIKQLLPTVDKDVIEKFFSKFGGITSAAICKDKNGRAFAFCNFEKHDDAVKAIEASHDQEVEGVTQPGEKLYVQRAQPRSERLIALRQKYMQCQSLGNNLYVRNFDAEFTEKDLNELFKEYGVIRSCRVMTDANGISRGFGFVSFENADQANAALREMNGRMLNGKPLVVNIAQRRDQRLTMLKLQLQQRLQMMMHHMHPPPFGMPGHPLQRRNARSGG

Series [6] addresses T6, Tb11.01.7680 (Trypanosoma brucei) (UniProt Q381I4).
T6 sequence: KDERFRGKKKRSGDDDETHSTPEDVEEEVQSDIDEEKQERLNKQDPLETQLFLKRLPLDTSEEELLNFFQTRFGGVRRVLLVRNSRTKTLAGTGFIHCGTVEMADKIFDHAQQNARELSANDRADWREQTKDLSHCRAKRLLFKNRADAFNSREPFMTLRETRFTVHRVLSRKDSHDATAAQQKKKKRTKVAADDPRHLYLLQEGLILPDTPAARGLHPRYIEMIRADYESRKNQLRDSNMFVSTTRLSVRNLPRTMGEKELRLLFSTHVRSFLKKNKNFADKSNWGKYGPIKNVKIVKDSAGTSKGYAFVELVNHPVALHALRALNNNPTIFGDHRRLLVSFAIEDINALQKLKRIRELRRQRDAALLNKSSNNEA

Series [7] deals with T7, LmjF.35.2550 (Leishmania major) (UniProt E9AF78).
T7 sequence: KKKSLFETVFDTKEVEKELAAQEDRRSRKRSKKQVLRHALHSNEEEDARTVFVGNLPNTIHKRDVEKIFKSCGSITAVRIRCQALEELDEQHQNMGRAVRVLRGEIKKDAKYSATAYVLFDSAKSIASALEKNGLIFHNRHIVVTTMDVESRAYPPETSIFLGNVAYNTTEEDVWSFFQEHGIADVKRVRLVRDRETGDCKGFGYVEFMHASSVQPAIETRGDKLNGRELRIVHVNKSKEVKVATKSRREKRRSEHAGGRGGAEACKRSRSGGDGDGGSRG

Series [8] concerns the target PTBP1 (Homo sapiens) (UniProt P26599).
Series [9] concerns the target e_gw1.09.00.326.1 (Ostreococcus tauri) (UniProt A0A090N3Z5).
In series [10] the target is eIF-2alpha (Drosophila melanogaster) (UniProt P41374).
Chain of eIF-2alpha (Drosophila melanogaster) (P41374 whole entry): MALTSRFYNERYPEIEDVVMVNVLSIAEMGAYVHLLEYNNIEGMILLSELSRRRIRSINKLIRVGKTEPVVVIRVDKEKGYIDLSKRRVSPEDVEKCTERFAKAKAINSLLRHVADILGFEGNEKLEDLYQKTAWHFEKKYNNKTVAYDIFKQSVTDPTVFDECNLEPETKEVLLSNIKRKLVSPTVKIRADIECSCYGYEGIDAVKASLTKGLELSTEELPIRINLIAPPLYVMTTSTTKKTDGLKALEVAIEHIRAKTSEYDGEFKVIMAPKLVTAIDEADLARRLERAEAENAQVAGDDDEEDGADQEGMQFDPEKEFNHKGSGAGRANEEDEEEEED
The target in series [11] is T8, LmjF.35.4130 (Leishmania major) (UniProt E9AFP0).
T8 sequence: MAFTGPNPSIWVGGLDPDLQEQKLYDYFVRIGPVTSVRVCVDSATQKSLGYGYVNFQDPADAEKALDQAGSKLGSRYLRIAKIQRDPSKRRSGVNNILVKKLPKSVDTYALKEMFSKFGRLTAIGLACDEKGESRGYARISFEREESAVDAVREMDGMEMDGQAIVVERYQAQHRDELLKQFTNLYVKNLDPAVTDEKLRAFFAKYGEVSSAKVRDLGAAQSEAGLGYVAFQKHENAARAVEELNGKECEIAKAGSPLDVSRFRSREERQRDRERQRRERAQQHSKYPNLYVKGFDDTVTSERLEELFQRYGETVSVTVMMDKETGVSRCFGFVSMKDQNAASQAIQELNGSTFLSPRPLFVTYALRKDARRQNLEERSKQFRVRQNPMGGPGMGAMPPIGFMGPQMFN

The target in series [12] is T9, TVAG_002940 (Trichomonas vaginalis) (UniProt A2EZR7).
T9 sequence: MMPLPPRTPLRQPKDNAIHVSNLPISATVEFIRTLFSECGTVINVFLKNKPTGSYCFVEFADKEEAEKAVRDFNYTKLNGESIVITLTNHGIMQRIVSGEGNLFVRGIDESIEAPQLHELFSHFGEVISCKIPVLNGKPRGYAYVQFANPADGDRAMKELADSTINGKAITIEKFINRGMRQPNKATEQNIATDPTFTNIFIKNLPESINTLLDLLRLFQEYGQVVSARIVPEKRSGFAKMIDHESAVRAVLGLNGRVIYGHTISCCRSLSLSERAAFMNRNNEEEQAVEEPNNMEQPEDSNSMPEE

Series [13] addresses aret (Drosophila melanogaster) (UniProt C8VV87).
Series [14] addresses T10, estExt_fgeneshHS_pg.C_730016 (Naegleria gruberi) (UniProt D2W041).
T10 sequence: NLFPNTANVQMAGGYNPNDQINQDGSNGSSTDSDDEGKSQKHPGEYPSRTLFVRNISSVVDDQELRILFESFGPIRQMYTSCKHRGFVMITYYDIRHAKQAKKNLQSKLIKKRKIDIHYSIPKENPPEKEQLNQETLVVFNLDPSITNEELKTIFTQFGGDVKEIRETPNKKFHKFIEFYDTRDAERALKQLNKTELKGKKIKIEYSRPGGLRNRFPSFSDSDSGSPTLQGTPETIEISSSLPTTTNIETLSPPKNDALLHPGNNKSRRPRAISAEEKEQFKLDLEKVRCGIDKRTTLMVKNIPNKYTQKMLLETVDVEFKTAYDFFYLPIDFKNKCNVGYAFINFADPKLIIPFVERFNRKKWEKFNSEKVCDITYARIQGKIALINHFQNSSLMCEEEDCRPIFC

The target of series [15] is T11, Tb11.03.0170 (Trypanosoma brucei) (UniProt Q387F5).
T11 sequence: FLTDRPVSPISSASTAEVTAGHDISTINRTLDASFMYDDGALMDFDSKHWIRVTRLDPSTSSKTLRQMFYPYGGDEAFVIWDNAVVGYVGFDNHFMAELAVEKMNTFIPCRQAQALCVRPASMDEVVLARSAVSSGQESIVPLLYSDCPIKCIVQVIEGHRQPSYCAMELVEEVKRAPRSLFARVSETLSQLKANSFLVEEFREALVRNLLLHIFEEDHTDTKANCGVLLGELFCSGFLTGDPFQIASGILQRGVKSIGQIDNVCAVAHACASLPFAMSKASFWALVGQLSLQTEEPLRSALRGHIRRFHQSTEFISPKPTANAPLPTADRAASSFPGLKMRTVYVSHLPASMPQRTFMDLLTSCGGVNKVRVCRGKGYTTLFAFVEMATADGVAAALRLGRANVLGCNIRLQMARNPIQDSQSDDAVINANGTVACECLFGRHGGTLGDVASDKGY

For series [16], the target named is T12, e_gw1.03.00.367.1 (Ostreococcus tauri) (UniProt Q01DB3).
T12 sequence: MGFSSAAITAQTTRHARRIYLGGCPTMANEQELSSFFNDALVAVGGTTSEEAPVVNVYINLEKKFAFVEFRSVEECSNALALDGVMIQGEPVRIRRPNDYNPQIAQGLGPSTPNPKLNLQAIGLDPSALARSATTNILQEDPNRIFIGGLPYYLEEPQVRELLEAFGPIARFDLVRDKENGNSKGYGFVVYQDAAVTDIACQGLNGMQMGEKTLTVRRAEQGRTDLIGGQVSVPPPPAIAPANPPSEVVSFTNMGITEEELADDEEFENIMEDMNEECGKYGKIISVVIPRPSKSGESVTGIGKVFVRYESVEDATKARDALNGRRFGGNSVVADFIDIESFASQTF

Series [17] addresses T13, Rb97D (Drosophila melanogaster) (UniProt Q02926).
T13 sequence: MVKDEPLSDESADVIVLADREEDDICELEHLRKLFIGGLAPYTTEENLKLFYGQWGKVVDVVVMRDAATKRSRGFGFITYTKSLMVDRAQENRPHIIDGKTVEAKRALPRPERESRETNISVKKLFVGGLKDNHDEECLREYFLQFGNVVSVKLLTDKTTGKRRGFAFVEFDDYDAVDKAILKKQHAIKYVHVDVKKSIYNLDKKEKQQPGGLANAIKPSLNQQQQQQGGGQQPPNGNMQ

Series [18] concerns the target SRSF10 (Homo sapiens) (UniProt O75494).

Chain of aret (Drosophila melanogaster) (C8VV87 entry or part of it): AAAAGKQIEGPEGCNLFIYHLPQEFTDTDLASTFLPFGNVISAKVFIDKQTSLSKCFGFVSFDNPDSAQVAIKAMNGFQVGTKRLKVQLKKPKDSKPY
Chain of SRSF10 (Homo sapiens) (O75494 1-92): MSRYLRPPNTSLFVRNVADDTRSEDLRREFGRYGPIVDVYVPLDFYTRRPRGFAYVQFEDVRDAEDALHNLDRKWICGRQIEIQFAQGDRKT
Chain of PTBP1 (Homo sapiens) (P26599 other isoform, or with tags, fused parts or gaps): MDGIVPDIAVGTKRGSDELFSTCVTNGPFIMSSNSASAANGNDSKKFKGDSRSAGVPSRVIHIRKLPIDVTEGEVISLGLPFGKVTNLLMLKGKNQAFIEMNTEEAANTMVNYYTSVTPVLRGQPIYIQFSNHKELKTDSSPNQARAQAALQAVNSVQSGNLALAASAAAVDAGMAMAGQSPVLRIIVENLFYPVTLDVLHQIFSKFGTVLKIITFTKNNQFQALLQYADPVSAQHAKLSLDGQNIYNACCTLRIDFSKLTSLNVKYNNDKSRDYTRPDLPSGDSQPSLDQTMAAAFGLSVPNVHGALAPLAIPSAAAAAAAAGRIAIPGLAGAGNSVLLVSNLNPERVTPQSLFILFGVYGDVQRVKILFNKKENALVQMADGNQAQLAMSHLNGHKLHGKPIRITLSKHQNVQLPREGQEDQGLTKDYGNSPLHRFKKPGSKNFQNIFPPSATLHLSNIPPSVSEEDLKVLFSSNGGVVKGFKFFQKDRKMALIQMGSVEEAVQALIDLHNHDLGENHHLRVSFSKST
Chain of e_gw1.09.00.326.1 (Ostreococcus tauri) (A0A090N3Z5 entry or part of it): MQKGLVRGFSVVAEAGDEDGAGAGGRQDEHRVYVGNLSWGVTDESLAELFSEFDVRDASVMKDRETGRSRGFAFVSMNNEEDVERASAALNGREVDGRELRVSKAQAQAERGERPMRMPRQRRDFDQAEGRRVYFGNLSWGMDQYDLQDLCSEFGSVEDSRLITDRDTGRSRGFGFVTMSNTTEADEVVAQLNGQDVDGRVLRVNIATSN

In the case of UGUUUG [RNAcompete motif RNCMPT00258], the binding signal (z-score (mean of top ten 7-mers)) in [1] is 7.64. Regarding AGACACA [RNAcompete motif RNCMPT00278], in [2], the binding signal (z-score (mean of top ten 7-mers)) was 12.7. For the substance UUUUUU [RNAcompete motif RNCMPT00256], the binding signal (z-score (mean of top ten 7-mers)) in [3] is 11.2.

ACCAUG [RNAcompete motif RNCMPT00259]: the binding signal (z-score (mean of top ten 7-mers)) in series [4] was 19.9.

Regarding AGAAANA [RNAcompete motif RNCMPT00253], the binding signal (z-score (mean of top ten 7-mers)) in series [5] was 9.59. Take AGUAGAU [RNAcompete motif RNCMPT00252]: the binding signal (z-score (mean of top ten 7-mers)) in [6] was 7.34. As for GAACG [RNAcompete motif RNCMPT00254], in [7], the binding signal (z-score (mean of top ten 7-mers)) was 15.2.

In the case of UUUUCU [RNAcompete motif RNCMPT00268], the binding signal (z-score (mean of top ten 7-mers)) in series [8] is 6.14.

As for AGAACA [RNAcompete motif RNCMPT00263], the binding signal (z-score (mean of top ten 7-mers)) in [9] is 8.19.

Take CUCUGU [RNAcompete motif RNCMPT00273]: the binding signal (z-score (mean of top ten 7-mers)) in series [10] was 6.48. Turning to AAAACAAA [RNAcompete motif RNCMPT00255], in [11], the binding signal (z-score (mean of top ten 7-mers)) was 8.22. Take AGAAAA [RNAcompete motif RNCMPT00257]: in [12], the binding signal (z-score (mean of top ten 7-mers)) is 12.5. Turning to “UNUUUGUGU [RNAcompete motif RNCMPT00270]”, the binding signal (z-score (mean of top ten 7-mers)) in series [13] is 14.8.

In the case of AAUUUUG [RNAcompete motif RNCMPT00261], the binding signal (z-score (mean of top ten 7-mers)) in series [14] is 19.4. Turning to UUCACAC [RNAcompete motif RNCMPT00251], the binding signal (z-score (mean of top ten 7-mers)) in series [15] is 9.19. Consider UUUUUU [RNAcompete motif RNCMPT00262], for which the binding signal (z-score (mean of top ten 7-mers)) in series [16] is 11.3. As to UAGGUA [RNAcompete motif RNCMPT00272], the binding signal (z-score (mean of top ten 7-mers)) in series [17] is 8.77. Take AGAGAAA [RNAcompete motif RNCMPT00090]: the binding signal (z-score (mean of top ten 7-mers)) in series [18] was 14.3.
